# Laboratory results taken from article PMC8011160.
# Values joined by “and” are separate entries in the source; they are usually repeats but may differ in a detail not shown here. Equal entries are not always repeated.
# How the values were obtained:
# Test in all cases: ELISA; host protein coated on microtiter wells; recombinant protein varied from 0 to 2 μM; absorbance with BSA subtracted; apparent Kd from the half-maximal binding concentration (GraphPad Prism 6)
# [1] = molecular target: plasminogen (purified from human plasma) (human)
# [2] = molecular target: plasma fibronectin (purified from human plasma) (human)
# [3] = molecular target: laminin (purified from basement membrane of Engelbreth-Holm-Swarm mouse sarcoma) (mouse) (UniProt P19137)
# [4] = molecular target: elastin (purified from bovine neck ligament) (bovine) (UniProt P04985)
# Chain of elastin (purified from bovine neck ligament) (bovine) (P04985 27-747): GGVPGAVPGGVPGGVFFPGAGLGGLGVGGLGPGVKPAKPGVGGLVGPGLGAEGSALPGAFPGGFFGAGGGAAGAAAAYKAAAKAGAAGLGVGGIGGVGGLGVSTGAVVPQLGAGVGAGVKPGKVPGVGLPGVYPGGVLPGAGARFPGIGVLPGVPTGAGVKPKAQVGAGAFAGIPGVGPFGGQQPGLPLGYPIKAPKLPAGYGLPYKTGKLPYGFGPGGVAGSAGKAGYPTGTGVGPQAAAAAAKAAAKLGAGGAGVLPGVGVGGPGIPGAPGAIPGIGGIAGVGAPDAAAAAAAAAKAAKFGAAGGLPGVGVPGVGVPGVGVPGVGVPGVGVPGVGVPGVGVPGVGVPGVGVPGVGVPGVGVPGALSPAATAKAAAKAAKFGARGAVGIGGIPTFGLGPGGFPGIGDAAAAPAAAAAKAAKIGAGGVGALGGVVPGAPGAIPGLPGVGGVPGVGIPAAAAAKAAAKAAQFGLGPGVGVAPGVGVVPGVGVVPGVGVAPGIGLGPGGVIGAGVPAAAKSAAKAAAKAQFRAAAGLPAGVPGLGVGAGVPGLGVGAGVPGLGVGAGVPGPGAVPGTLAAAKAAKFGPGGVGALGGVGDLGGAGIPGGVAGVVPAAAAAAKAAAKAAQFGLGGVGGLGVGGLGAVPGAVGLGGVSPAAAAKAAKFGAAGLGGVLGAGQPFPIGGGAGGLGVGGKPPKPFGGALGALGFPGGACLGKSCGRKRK
# [5] = molecular target: collagen Type I (purified from rat tail) (rat) (UniProt P02454)
# Chain of collagen Type I (purified from rat tail) (rat) (P02454 152-1207, chain 1 of 2): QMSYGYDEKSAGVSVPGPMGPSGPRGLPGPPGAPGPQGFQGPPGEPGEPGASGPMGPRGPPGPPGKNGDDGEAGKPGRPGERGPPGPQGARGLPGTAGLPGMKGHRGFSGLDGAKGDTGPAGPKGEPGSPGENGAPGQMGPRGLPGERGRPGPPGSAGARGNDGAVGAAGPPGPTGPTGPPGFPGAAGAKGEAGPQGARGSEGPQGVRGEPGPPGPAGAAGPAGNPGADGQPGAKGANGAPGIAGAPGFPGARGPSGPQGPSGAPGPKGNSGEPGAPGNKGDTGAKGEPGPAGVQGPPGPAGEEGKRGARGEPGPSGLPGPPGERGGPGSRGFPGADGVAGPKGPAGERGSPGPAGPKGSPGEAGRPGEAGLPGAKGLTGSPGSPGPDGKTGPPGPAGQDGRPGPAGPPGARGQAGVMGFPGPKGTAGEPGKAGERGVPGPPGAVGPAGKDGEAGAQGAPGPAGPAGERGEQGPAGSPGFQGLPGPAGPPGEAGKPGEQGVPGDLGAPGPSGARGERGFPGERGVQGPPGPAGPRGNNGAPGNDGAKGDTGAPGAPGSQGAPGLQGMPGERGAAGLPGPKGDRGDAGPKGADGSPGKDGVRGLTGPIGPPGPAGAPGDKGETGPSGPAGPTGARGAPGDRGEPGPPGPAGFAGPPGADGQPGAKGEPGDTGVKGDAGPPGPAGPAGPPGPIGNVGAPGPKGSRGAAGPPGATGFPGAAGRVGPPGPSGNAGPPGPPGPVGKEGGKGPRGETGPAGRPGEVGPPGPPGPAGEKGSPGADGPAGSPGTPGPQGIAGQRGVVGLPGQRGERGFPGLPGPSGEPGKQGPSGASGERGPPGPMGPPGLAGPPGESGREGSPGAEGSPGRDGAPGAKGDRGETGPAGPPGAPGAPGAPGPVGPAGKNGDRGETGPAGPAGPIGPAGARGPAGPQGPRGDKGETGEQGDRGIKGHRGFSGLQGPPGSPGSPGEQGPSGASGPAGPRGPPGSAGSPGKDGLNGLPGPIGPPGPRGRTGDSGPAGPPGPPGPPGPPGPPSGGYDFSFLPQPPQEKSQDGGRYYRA
# Chain of collagen Type I (purified from rat tail) (rat) (P02466 86-1125, chain 2 of 2, further chain): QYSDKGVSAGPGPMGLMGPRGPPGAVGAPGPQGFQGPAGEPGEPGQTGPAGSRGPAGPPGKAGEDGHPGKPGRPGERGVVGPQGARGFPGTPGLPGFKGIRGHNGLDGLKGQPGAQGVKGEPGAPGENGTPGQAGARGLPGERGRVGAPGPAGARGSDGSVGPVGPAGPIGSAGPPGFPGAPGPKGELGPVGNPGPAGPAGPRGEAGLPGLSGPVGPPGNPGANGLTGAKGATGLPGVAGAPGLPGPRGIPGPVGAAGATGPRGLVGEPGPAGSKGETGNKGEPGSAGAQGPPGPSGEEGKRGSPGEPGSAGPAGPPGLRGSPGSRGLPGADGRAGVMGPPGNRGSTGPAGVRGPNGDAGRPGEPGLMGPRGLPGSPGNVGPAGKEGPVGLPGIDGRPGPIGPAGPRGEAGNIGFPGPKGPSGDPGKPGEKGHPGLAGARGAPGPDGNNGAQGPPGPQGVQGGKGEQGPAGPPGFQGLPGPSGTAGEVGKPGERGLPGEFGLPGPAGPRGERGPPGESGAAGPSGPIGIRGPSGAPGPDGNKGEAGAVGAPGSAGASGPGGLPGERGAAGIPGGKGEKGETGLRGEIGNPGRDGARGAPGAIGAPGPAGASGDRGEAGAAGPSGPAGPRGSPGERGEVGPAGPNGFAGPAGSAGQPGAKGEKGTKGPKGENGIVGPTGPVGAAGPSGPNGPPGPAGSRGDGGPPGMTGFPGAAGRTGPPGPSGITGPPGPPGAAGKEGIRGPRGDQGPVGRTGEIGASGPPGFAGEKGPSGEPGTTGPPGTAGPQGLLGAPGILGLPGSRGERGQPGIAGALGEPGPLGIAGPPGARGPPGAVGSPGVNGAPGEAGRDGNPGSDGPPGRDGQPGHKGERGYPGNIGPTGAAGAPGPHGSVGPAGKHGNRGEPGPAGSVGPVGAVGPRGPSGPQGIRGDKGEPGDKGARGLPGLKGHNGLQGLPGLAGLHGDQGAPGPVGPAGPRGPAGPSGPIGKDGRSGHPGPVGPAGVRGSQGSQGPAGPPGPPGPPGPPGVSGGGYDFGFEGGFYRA
# [6] = molecular target: fibrinogen (purified from human plasma) (human) (UniProt P02671)
# Chain of fibrinogen (purified from human plasma) (human) (P02671 other isoform, or with tags, fused parts or gaps, chain 1 of 3): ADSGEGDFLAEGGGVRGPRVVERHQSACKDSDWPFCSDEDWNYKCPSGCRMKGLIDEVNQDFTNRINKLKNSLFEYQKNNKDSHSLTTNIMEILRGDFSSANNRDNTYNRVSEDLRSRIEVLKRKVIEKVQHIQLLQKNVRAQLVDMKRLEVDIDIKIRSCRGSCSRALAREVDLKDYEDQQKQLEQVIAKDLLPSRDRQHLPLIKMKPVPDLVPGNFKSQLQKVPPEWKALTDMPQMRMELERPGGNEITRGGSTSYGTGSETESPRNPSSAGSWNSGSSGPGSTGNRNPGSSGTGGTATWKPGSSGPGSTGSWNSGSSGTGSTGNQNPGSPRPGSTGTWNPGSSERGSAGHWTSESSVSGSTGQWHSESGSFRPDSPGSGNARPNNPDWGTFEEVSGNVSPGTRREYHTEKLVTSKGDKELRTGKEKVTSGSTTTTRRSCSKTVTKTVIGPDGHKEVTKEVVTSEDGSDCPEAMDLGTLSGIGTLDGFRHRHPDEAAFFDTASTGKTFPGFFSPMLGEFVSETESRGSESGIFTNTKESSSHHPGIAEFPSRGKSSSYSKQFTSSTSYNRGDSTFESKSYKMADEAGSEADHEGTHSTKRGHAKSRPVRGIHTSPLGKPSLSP
# Chain of fibrinogen (purified from human plasma) (human) (P02675 31-491, chain 2 of 3, further chain): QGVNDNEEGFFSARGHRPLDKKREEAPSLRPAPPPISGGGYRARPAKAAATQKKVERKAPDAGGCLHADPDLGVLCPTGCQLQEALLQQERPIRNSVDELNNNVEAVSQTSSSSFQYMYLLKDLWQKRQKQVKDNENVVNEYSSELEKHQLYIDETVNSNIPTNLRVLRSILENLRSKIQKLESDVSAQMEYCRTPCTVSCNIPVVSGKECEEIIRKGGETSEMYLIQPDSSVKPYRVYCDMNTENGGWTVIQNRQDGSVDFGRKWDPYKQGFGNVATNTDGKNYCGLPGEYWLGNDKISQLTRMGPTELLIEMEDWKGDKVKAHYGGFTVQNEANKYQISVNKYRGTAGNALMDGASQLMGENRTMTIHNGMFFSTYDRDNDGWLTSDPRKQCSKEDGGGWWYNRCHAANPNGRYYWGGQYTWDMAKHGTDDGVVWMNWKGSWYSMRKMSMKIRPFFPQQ
# Chain of fibrinogen (purified from human plasma) (human) (P02679 other isoform, or with tags, fused parts or gaps, chain 3 of 3, further chain): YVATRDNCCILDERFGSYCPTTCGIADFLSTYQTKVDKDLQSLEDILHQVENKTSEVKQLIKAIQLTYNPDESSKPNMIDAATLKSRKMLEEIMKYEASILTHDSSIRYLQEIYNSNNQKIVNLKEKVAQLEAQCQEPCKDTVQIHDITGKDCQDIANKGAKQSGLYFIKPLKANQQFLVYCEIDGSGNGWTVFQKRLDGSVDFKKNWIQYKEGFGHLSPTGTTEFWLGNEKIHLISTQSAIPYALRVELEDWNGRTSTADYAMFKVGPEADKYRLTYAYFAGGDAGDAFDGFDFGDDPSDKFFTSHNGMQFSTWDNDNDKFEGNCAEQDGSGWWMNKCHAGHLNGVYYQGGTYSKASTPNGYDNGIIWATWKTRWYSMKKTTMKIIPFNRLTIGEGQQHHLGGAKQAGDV
# [7] = molecular target: collagen Type IV (purified from basement membrane of Engelbreth-Holm-Swarm mouse sarcoma) (mouse) (UniProt P02463)
# Chain of GroEL protein of Leptospira interrogans (recombinant, His-tagged) (P61438 whole entry): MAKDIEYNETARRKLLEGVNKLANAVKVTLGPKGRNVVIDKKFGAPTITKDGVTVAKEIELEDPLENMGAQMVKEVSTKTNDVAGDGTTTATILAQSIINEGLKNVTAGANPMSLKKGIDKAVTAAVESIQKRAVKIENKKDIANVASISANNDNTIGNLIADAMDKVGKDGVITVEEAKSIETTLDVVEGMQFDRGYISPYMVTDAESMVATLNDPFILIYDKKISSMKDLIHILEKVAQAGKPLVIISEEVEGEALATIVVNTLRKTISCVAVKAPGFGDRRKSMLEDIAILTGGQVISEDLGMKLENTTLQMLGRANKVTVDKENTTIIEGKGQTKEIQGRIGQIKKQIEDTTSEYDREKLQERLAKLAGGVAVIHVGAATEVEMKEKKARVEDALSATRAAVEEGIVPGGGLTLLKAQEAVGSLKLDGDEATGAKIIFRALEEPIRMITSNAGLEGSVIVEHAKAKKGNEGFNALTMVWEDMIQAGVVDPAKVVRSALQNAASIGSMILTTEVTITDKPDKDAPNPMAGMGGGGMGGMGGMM
Substance,Kd [1] [nM],Kd [2],Kd [3] [nM],Kd [4] [nM],Kd [5] [nM],Kd [6] [nM],Kd [7] [nM]
"GroEL protein of Leptospira interrogans (recombinant, His-tagged) (from UniProt P61438 1-546) (natural protein)",31,34 nM and 10 nM,–,–,–,–,–
leptospiral protein 25 (Lp25) (natural protein),4430,5370 nM and 6370 nM,1140,606,699,606,2420
"truncated form of leptospiral immunoglobulin-like protein B (LigBC, amino acids 631-1156) (from UniProt Q72V39 631-1156) (domain or fragment)",5,15 nM and 6 nM,–,–,–,–,–
